The results in this text go back to US20210024646A1 (FUDAN UNIVERSITY, published 2021).

The target of assay [1] is T1, extracellular domain of human CD73 protein (CD73-ECD), C-terminus polyhistidine-tagged (human, UniProt P21589 27-547).
T1 construct: also called Human CD73-ECD; human recombinant CD73 enzyme (CD73 extracellular domain)
T1 sequence: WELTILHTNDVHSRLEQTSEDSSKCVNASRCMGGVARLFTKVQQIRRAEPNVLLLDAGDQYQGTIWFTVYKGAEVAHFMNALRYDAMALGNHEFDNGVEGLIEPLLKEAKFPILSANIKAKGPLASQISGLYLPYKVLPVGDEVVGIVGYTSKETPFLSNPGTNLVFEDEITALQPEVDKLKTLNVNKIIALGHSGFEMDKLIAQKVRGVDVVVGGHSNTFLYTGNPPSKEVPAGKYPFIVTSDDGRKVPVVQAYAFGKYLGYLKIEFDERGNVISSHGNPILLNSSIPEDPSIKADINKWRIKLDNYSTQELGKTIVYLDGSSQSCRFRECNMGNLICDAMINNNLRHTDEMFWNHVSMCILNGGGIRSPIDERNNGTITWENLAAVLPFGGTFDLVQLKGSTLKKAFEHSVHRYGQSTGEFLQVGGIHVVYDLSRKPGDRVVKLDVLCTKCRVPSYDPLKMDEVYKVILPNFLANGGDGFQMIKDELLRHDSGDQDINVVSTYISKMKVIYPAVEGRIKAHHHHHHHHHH
The assay can be described thus: ELISA, coated CD73-ECD. (An ELISA detects its analyte on a solid surface through an enzyme-linked reagent.)

In assay [2] the target is T2, CD73 on the surface of human tumor cells (human, UniProt P21589 27-549).
T2 construct: whole, on cells; One entry for endogenous CD73 on all cell lines; the cell line is named under assay or readout; also called CD73 receptors on the surface of tumor cells; tumor cell CD73
T2 sequence (looked up): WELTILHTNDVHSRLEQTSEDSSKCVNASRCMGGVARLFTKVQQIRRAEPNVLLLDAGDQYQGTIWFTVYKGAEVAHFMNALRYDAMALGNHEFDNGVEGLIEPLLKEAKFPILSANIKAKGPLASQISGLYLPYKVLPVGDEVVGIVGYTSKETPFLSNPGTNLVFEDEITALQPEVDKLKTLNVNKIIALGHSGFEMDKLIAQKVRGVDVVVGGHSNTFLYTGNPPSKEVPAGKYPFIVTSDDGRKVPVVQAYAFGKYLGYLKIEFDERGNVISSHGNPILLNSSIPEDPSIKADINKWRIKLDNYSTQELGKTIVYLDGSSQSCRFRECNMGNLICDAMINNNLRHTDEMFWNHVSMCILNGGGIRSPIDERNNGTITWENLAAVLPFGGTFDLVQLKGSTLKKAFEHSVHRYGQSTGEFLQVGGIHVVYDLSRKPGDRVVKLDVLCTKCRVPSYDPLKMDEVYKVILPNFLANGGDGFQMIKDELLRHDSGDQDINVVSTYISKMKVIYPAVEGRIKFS
The assay can be described thus: flow cytometry, NCI-H1299 cells. A general note: Flow cytometry measures light scatter and fluorescence of single cells or particles in a stream.

B1: Hu001c-21 (antibody, V domains shown)
VH: QVQLVQSGAEVKKPGASVKVSCKASGYTFTNYYIYWVRQAPGQRLEWIGWIYPGNLNIKYNEKFKGRVTITADKSASTAYMELSSLRSEDTAVYYCARDDNYAWFAYWGQGTLVTVSS
VL: DIQMTQSPSSLSASVGDRVTITCKASQDVSTAVAWYQQKPGKAPKLLIYWTNTRHTGVPSRFSGSGSGTDHTLTISSLQPEDFATYYCQQHYSTPFTFGQGTKLEIK
notes: Humanized
Turning to B1, the binding result in assay [1] is given as “binds”.

B2: Hu001c-30 (antibody, V domains shown)
VH: QVQLVQSGAEVKKPGASVKVSCKASGYTFTNYYIYWVKQRPGQRLEWIGWIYPGNLNIKYNEKFKGRSTLTADKSASTAYMELSSLRSEDTAVYYCARDDNYAWFAYWGQGTLVTVSS
VL: DIQMTQSPSSLSASVGDRVTITCKASQDVSTAVAWYQQKPGKAPKLLIYWTNTRHTGVPSRFSGSGSGTDFTLTISSLQPEDFATYYCQQHYSTPFTFGQGTKLEIK
notes: Humanized
With B2, the binding result in assay [1] and in assay [2] was “binds” each time.

B3: Hu001c-31 (antibody, V domains shown)
VH: QVQLVQSGAEVKKPGASVKVSCKASGYTFTNYYIYWVRQAPGQRLEWIGWIYPGNLNIKYNEKFKGRSTLTADKSASTAYMELSSLRSEDTAVYYCARDDNYAWFAYWGQGTLVTVSS
VL: DIQMTQSPSSLSASVGDRVTITCKASQDVSTAVAWYQQKPGKAPKLLIYWTNTRHTGVPSRFSGSGSGTDHTLTISSLQPEDFATYYCQQHYSTPFTFGQGTKLEIK
notes: Humanized
As to B3, the binding result in assay [1] and in assay [2] was “binds” each time.

B4: Hu001c-28 (antibody, V domains shown)
VH: QVQLVQSGAEVKKPGASVKVSCKTSGYTFTNYYIYWVKQRPGQGLEWIGWIYPGNLNIKYNEKFKGRVTITADKSASTAYMELSSLRSEDTAVYYCARDDNYAWFAYWGQGTLVTVSS
VL: DIQMTQSPSSLSASVGDRVTITCKASQDVSTAVAWYQQKPGKSPKLLIYWTNTRHTGVPSRFSGSGSGTDHTLTISSLQPEDFATYYCQQHYSTPFTFGQGTKLEIK
notes: Humanized
For B4, the binding result in assay [1] and in assay [2] was “binds” each time.

B5: Hu001c-32 (antibody, V domains shown)
VH: QVQLVQSGAEVKKPGASVKVSCKASGYTFTNYYIYWVKQRPGQRLEWIGWIYPGNLNIKYNEKFKGRSTLTADKSASTAYMELSSLRSEDTAVYYCARDDNYAWFAYWGQGTLVTVSS
VL: DIQMTQSPSSLSASVGDRVTITCKASQDVSTAVAWYQQKPGKAPKLLIYWTNTRHTGVPSRFSGSGSGTDHTLTISSLQPEDFATYYCQQHYSTPFTFGQGTKLEIK
notes: Humanized
For the molecule B5, the binding result in assay [1] and in assay [2] was “binds” in each case.

B6: Hu002c-6 (antibody, V domains shown)
VH: QVQLVQSGAEVKKPGASVKVSCKASGYTLTSYWMHWVRQAPGQGLEWIGEINPSQGRSNYNEKFKSRVTLTVDRSTSTVYMELSSLRSEDTAVYYCARRGVSGNYFDYWGQGTLVTVSS
VL: DIQMTQSPSSLSASVGDRVTITCKASQDINTYLSWFQQKPGKAPKSLIYRSNILVSGVPSRFSGSGSGQDYTLTISSLQPEDFATYYCLQYDEFPYTFGQGTKLEIK
notes: Humanized
Consider B6, for which the binding result in assay [1] and in assay [2] was “binds” each time.

B7: Hu002c-8 (antibody, V domains shown)
VH: QVQLVQSGAEVKKPGASVKVSCKASGYTLTSYWMHWVRQAPGQGLEWIGEINPSQGRSNYNEKFKSRVTLTVDRSTSTVYMELSSLRSEDTAVYYCARRGVSGNYFDYWGQGTLVTVSS
VL: DIQMTQSPSSLSASVGDRVTITCKASQDINTYLSWFQQKPGKSPKSLIYRSNILVSGVPSRFSGSGSGQDYTLTISSLQPEDFAIYYCLQYDEFPYTFGGGTKLEI
notes: Humanized
As for B7, the binding result in assay [1] and in assay [2] was “binds” throughout.

B8: Hu002c-11 (antibody, V domains shown)
VH: QVQLVQSGAEVKKPGASVKVSCKASGYTLTSYWMHWVRQAPGQGLEWIGEINPSQGRSNYNEKFKSKVTLTVDRSTSTVYMELSSLRSEDTAVYYCARRGVSGNYFDYWGQGTLVTVSS
VL: DIQMTQSPSSLSASVGDRVTITCKASQDINTYLSWFQQKPGKSPKSLIYRSNILVSGVPSRFSGSGSGQDYTLTISSLQPEDFATYYCLQYDEFPYTFGGGTKLEIK
notes: Humanized
Take B8: the binding result in assay [1] and in assay [2] was “binds” throughout.

B9: Hu002c-7 (antibody, V domains shown)
VH: QVQLVQSGAEVKKPGASVKVSCKASGYTLTSYWMHWVRQAPGQGLEWIGEINPSQGRSNYNEKFKSRVTLTVDRSTSTVYMELSSLRSEDTAVYYCARRGVSGNYFDYWGQGTLVTVSS
VL: DIQMTQSPSSLSASVGDRVTITCKASQDINTYLSWFQQKPGKSPKSLIYRSNILVSGVPSRFSGSGSGQDYTLTISSLQPEDFATYYCLQYDEFPYTFGGGTKLEIK
notes: Humanized
Turning to B9, the binding result in assay [1] and in assay [2] was “binds” each time.

B10: Hu002c-14 (antibody, V domains shown)
VH: QVQLVQSGAEVKKPGASVKVSCKASGYTLTSYWMHWVKKAPGQGLEWIGEINPSQGRSNYNEKFKSKVTLTVDRSTSTVYMELSSLRSEDTAVYYCARRGVSGNYFDYWGQGTLVTVSS
VL: DIQMTQSPSSLSASVGDRVTITCKASQDINTYLSWFQQKPGKAPKSLIYRSNILVSGVPSRFSGSGSGQDYTLTISSLQPEDFATYYCLQYDEFPYTFGQGTKLEIK
notes: Humanized
B10: the binding result in assay [1] and in assay [2] was “binds” in each case.

B11: Hu002c-10 (antibody, V domains shown)
VH: QVQLVQSGAEVKKPGASVKVSCKASGYTLTSYWMHWVRQAPGQGLEWIGEINPSQGRSNYNEKFKSKVTLTVDRSTSTVYMELSSLRSEDTAVYYCARRGVSGNYFDYWGQGTLVTVSS
VL: DIQMTQSPSSLSASVGDRVTITCKASQDINTYLSWFQQKPGKAPKSLIYRSNILVSGVPSRFSGSGSGQDYTLTISSLQPEDFATYYCLQYDEFPYTFGQGTKLEIK
notes: Humanized
For the molecule B11, the binding result in assay [1] and in assay [2] was “binds” throughout.

B12: Hu002c-3 (antibody, V domains shown)
VH: QVQLVQSGAEVKKPGASVKVSCKASGYTLTSYWMHWVRQAPGQGLEWMGEINPSQGRSNYNEKFKSRVTMTRDTSTSTVYMELSSLRSEDTAVYYCARRGVSGNYFDYWGQGTLVTVSS
VL: DIQMTQSPSSLSASVGDRVTITCKASQDINTYLSWFQQKPGKSPKSLIYRSNILVSGVPSRFSGSGSGQDYTLTISSLQPEDFATYYCLQYDEFPYTFGGGTKLEIK
notes: Humanized
For the molecule B12, the binding result in assay [1] and in assay [2] was “binds” each time.

B13: Hu002c-12 (antibody, V domains shown)
VH: QVQLVQSGAEVKKPGASVKVSCKASGYTLTSYWMHWVRQAPGQGLEWIGEINPSQGRSNYNEKFKSKVTLTVDRSTSTVYMELSSLRSEDTAVYYCARRGVSGNYFDYWGQGTLVTVSS
VL: DIQMTQSPSSLSASVGDRVTITCKASQDINTYLSWFQQKPGKSPKSLIYRSNILVSGVPSRFSGSGSGQDYTLTISSLQPEDFAIYYCLQYDEFPYTFGGGTKLEI
notes: Humanized
Regarding B13, the binding result in assay [1] and in assay [2] was “binds” throughout.

B14: Hu002c-2 (antibody, V domains shown)
VH: QVQLVQSGAEVKKPGASVKVSCKASGYTLTSYWMHWVRQAPGQGLEWMGEINPSQGRSNYNEKFKSRVTMTRDTSTSTVYMELSSLRSEDTAVYYCARRGVSGNYFDYWGQGTLVTVSS
VL: DIQMTQSPSSLSASVGDRVTITCKASQDINTYLSWFQQKPGKAPKSLIYRSNILVSGVPSRFSGSGSGQDYTLTISSLQPEDFATYYCLQYDEFPYTFGQGTKLEIK
notes: Humanized
Take B14: the binding result in assay [1] and in assay [2] was “binds” throughout.

B15: Hu002c-4 (antibody, V domains shown)
VH: QVQLVQSGAEVKKPGASVKVSCKASGYTLTSYWMHWVRQAPGQGLEWMGEINPSQGRSNYNEKFKSRVTMTRDTSTSTVYMELSSLRSEDTAVYYCARRGVSGNYFDYWGQGTLVTVSS
VL: DIQMTQSPSSLSASVGDRVTITCKASQDINTYLSWFQQKPGKSPKSLIYRSNILVSGVPSRFSGSGSGQDYTLTISSLQPEDFAIYYCLQYDEFPYTFGGGTKLEI
notes: Humanized
Turning to B15, the binding result in assay [1] and in assay [2] was “binds” each time.

B16: Hu002c-15 (antibody, V domains shown)
VH: QVQLVQSGAEVKKPGASVKVSCKASGYTLTSYWMHWVKKAPGQGLEWIGEINPSQGRSNYNEKFKSKVTLTVDRSTSTVYMELSSLRSEDTAVYYCARRGVSGNYFDYWGQGTLVTVSS
VL: DIQMTQSPSSLSASVGDRVTITCKASQDINTYLSWFQQKPGKSPKSLIYRSNILVSGVPSRFSGSGSGQDYTLTISSLQPEDFATYYCLQYDEFPYTFGGGTKLEIK
notes: Humanized
Consider B16, for which the binding result in assay [1] and in assay [2] was “binds” each time.
